Measured values reported in the nanobody polyreactivity screen of Harvey et al. (2022).

Assay: yeast display, Sf9 membrane polyspecificity reagent, FACS + sequencing; frameworks hold sequencing errors
Summary of the method: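 In a synthetic yeast display library (Saccharomyces cerevisiae BJ5465), nanobody expression was induced with galactose for 36–48 hours. FACS gates were set low and high (top ~1%) using anti-HA fluorescence for expression and streptavidin fluorescence for binding of the Sf9 membrane reagent. Each polyreactivity label is drawn from the gate of origin.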

Sequence | polyreactivity (PSR sort gate)
QVQLVESGGGLVQAGGSLRLSCAASGFTFDQYTMGWYRQAPGKERELVAAISSSGGSTYYADSVKGRFTISRDNAKNTVYLQMNSLKPEDTAVYYCAARFLLTQRVSHDYRGQGTQVTVSS | low polyreactivity
QVQLVESGGGLVQAGGSLRLSCAASGFTFDRNAMGWYRQAPGKERGFVAAISSSGGRTYYADSVKGRFTISRDNAKITVYLEMNSLKQEDTALYYCAADFVSRPSAYGSSYYWGQGTQVTVSS | high polyreactivity
QVQLVESGGGLVQAGGSLRLSCAASGFTFDSNAMGWYIQAPGKERELVAAISTGGSTYYADSVKGRFTISRDNAKNTVYLQMNSLKPEDTAVYYCARDPPYPDTWYGYWGQGTQVTVSS | low polyreactivity
QVQLVESGGGLVQAGGSLRLSCAASGFTFDSNAMGWYRQAPGKERELVAAISTGGSTYYADSVKGRFTISRDNAKNTVYLQMNSLKPEDTAVYYCARDPPYPDTWYGYWGQGTQVTVSS | low polyreactivity
QVQLVESGGGLVQAGGSLRLSCAASGFTFDSYAMGWYRQAPGKERELVAAITSDGSTYYADSVKGRFTISRDNAKNTVYLQMNSLKPEDTAVYYCAADGISLYATAYDYWGQGTQVTVSS | low polyreactivity
QVQLVESGGGLVQAGGSLRLSCAASGFTFDSYAMGWYRQAPGKERELVAAITWSGGSTYYADSVKGRFTISRDNAKNTVYLQMMSLKPEDTAVYYCNVYRYDGDYWGQGTQVTVSS | high polyreactivity
QVQLVESGGGLVQAGGSLRLSCAASGFTFDSYAMGWYRQAPGKERELVADITWDGGSTYYADSVKGRFTISRDNAKNTVYLQMKSLKPEDTAVYYCAADFGTFSIDVYSWMDYWGQGTQATVSS | low polyreactivity
QVQLVESGGGLVQAGGSLRLSCAASGFTFDVYTMGWYRQAPGKEREFVAAISGSGGSTYYADSVKGRFTISRDNAKNTVYLQMNSLKPEDTAVYYCNAGLSRVSHRHLSHSLQGYDYWGQGTQVTVSS | low polyreactivity
QVQLVESGGGLVQAGGSLRLSCAASGFTFDYYAMGWYRQAPGKDRELVAAITSGSITYYADSVKGRFTISRDNAKNTVYLQMNSLKPEDTAVYYCARYGYRRVGSRWAEFDYWGQGTQVTVSS | high polyreactivity
QVQLVESGGGLVQAGGSLRLSCAASGFTFDYYAMGWYRQAPGKERELVAAITSGSITYYADSVKGRFTISRDNAKNTVYLQMNSLKPEDTAVYYCARYGYRRVGSRWAEFDYWGQGTQVTVSS | high polyreactivity
QVQLVESGGGLVQAGGSLRLSCAASGFTFDYYVMGWYIQAPGKERELVAAITFSATSTYYADSVKGRYTISRDNAKNTVYLQMNSLNPEDTAVYYCAAVICNWQYQYYYWGQGTKVTVSS | low polyreactivity
QVQLVESGGGLVQAGGSLRLSCAASGFTFEFYVMGGYSPAPGKERELVAAISTTGGSTYYADSVKGRFTISRDNAKNTVYLQMNSLKPEDTAVYYCAAEYYLWWKSHLWEYGYWGQGTQVTVSS | high polyreactivity
QVQLVESGGGLVQAGGSLRLSCAASGFTFEGYAMGWYRQAPGKERELVAAISDNGGRTYYADSVKGRFTISRDNAKNTVYLQMHPLTPEETEVYYCNARPAYSGPDYDYYHGRRYDYWGQGTQVTVSS | low polyreactivity
QVQLVESGGGLVQAGGSLRLSCAASGFTFEIYAMGWYSQAPGKVRELVAAISKSGGSTYYADSVKGRFTISRDNAKKRVYLQMNSLKPEDSSVYSCAARYKALYDYWGQGTQVTVSS | high polyreactivity
QVQLVESGGGLVQAGGSLRLSCAASGFTFEKYVMGWYRQAPGKEREFVAAITRSGGRTYYADSVKGRFTISRDNAKNTVYLQMNSLKPEDSAVYYCAAAFSRSDTGGGSWGQGTEVTVSS | high polyreactivity
QVQLVESGGGLVQAGGSLRLSCAASGFTFERNTMGWYRQAPGKERELVSTITRRGTSTYYADSVKGRFTISRDNAKNTVYLQMNSLKPEDTAVYYCAVYGYRTKYGYWGQGTQVTVSS | high polyreactivity
QVQLVESGGGLVQAGGSLRLSCAASGFTFERYAMGWYRPAPGKDRELVAAITGSGGSTYYADSVKGRFTIARDNATNTVYLQMNSLKPEDTAFYYCARDSSLFRLRDYWGQGTQVTVSS | low polyreactivity
QVQLVESGGGLVQAGGSLRLSCAASGFTFERYTMGWYRQAPGKEREMVATISRRSGRTSYADSVKGRFTISRDYAKNTVYLQMNRLQPEDTAVYYCAVDDAYPDRYDYWGQGTQVTVSS | high polyreactivity
QVQLVESGGGLVQAGGSLRLSCAASGFTFETYVMGWYRQAPGKERELVAAISRRGGSTYYADSVKGRFTISRDNAKNTVYLQMNSLKPEDTAVYYCGKDGGWSRLHYNYWGQGTQVTVSS | high polyreactivity
QVQLVESGGGLVQAGGSLRLSCAASGFTFEWNTMGWYRPAPGKERELVARINWSSGRTYYADSVKGRFTISRDNAKNTVYLQMNSLKPEDTAVYYCAADTYDWRTGYKDDYWGQGTQVTVSS | high polyreactivity
QVQLVESGGGLVQAGGSLRLSCAASGFTFEYNDMGWYRQAPGIERELVDSISYDSDSTYYADSVKGRFTISRDNAKNTVYLQMNRLKPEDTAVYYCNAGSSYHEYGYWGQGTQVTVSS | high polyreactivity
QVQLVESGGGLVQAGGSLRLSCAASGFTFEYNDMGWYRQAPGKERELVASISYDSDSTYYAVSVKGRFTISRDNAKNTVYLQMNSLKPEDTAVYYCNAGSSYHEYGYWGQGTQVTVSS | high polyreactivity
QVQLVESGGGLVQAGGSLRLSCAASGFTFEYYAMGWYRQAPGKERELVAVITWNGGSTYYADSVKGRFTISRDNAKNTVYLQMNSLKPEDTAVYYCNVVPYLYNGGSHRYNYWGQGTQVTVSS | high polyreactivity
QVQLVESGGGLVQAGGSLRLSCAASGFTFFDNAMGWYRQAPGKERELVAAITWSDGSTYYADSVKGRFTISRDNAKNTVYLQMNSLKAEDTAVYYCAVGFISYSYSNYYDVWYEYYYWGQGTQVTVSS | low polyreactivity
QVQLVESGGGLVQAGGSLRLSCAASGFTFFDYVMGWYRQAPGKERELVAAISSGGSTYYADSVKGRFTISRDNAKNTVYLQMNSLKPEDTAVYYCATDNGYPDDATDGYYSLYDYWGQGTQVTVSS | low polyreactivity
QVQLVESGGGLVQAGGSLRLSCAASGFTFFEDNAMGWYRQAPGKERELVAAITSGGSTNYADSVKGRFTISRDNAKNTVYLQMISLKPEDTAVYYCAKDRVPLKTRFYYFPWGYDYWGQGTQVTVSS | low polyreactivity
QVQLVESGGGLVQAGGSLRLSCAASGFTFFGDYAMGWYRQAPGKERELVAAIDWSGGTTYYADSVKGRFTISRDNAKNTVYLQMNSLKPEDTAVYYCAKDYYSDGIYYEYWGQGTQVTVSS | high polyreactivity
QVQLVESGGGLVQAGGSLRLSCAASGFTFFHYAMGWYRQAPGKERELVAAINTRGSRTYYADSVKGRFTISRDNAKNTVYLQMNSLKPEDTAVYYCAADSVQVYAWQYYYWGQGTQVTVSS | high polyreactivity
QVQLVESGGGLVQAGGSLRLSCAASGFTFFHYDMGWYRQAPGKERELVAAINTRGSRTYYADSVKGRFTISRDNAKNTVYLQMNSLKPEDTAGYYSAADSVQVYAGQYYYWGQGTQVTVSS | high polyreactivity
QVQLVESGGGLVQAGGSLRLSCAASGFTFFSNAMGWYRQAPGKERELVAAITSSGGSTYADSVKGRFTISRDNAKNTVYLQMNSLKPEDTAVYYCAADALAPPGGFKEYDYWGQGTQVTVSS | low polyreactivity
